T1: PUF4 RNA-binding domain (Saccharomyces cerevisiae, UniProt P25339 537-888)
T1 sequence: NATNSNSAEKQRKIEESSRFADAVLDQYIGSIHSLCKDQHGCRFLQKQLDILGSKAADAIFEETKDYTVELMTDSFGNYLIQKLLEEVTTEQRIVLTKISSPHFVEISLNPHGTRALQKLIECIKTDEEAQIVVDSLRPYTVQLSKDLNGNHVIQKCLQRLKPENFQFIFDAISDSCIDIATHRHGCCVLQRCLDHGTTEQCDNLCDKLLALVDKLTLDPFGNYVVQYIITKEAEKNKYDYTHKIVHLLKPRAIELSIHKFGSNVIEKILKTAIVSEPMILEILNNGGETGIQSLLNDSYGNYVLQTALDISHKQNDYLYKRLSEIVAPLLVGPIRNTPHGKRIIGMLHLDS


What follows are binders tested against T1, PUF4 RNA-binding domain (assay: Mg; RNA-MaP; 20 mM Na-HEPES pH 7.4, 30 mM KOAc, 0.75 mM MgCl2, 0.1% Tween-20, 5% glycerol, 0.1 mg/mL BSA, 2 mM DTT; 25 C; 0.0125-409.6 nM protein). Conditions: tags: N-His6-TEV cleaved; C-SNAP kept, Cy3B-labelled; label: tethered on chip by stalled RNA polymerase.

Binder	Kd [nM]
UCUCUUUGUAUGUUGUCUCUU (ssRNA) [Ib_S1_P4E.1_K4.1_C4.1_H4.1_A4.1_[A6G]_F4.1_[A9G]_T4.1]	218
UCUCUUUGUAUUUUGUCUCUU (ssRNA) [Ic_S1_P4E.1_K4.1_C4.1_H4.1_A4.1_[A6T]_F4.1_[A9G]_T4.1]	15.2
UCUCUUUGUACAUUUUCUCUU (ssRNA) [Ic_S1_P4E.1_K4.1_C4.1_H4.1_A4.1_[T5C]_F4.1_[A9T]_T4.1]	5.25
UCUCUUUGUAUCUUGUCUCUU (ssRNA) [Ib_S1_P4E.1_K4.1_C4.1_H4.1_A4.1_[A6C]_F4.1_[A9G]_T4.1]	25.9
Ic_S4_P5E.1_K5.1_C5.1_H5.1_A5.1_[T5G]_[T6C]_[A7C]_F5.1_[T8C]_T5.1 (ssRNA) RNA: UUUGACAACUGAUCGUUCUUUCUUGUAGCCCUAUUCUUUCUCGAUCAGUUGUCUUU	19.6
Ic_S4_P5E.1_K5.1_C5.1_H5.1_A5.1_[T5G]_[T6C]_[A7G]_F5.1_[T8C]_[T9G]_[A10T]_T5.1 (ssRNA) RNA: UUUGACAACUGAUCGUUCUUUCUUGUAGCGCGUUUCUUUCUCGAUCAGUUGUCUUU	1620
Ic_S4_P5E.1_K5.1_C5.1_H5.1_A5.1_[T5C]_[T6A]_[A7C]_F5.1_[T8C]_[A10G]_T5.1 (ssRNA) RNA: UUUGACAACUGAUCGUUCUUUCUUGUACACCUGUUCUUUCUCGAUCAGUUGUCUUU	81
Ic_S4_P5E.1_K5.1_C5.1_H5.1_A5.1_[T5G]_[A7T]_F5.1_[T8A]_[A10T]_T5.1 (ssRNA) RNA: UUUGACAACUGAUCGUUCUUUCUUGUAGUUAUUUUCUUUCUCGAUCAGUUGUCUUU	85.3
Ic_S4_P5E.1_K5.1_C5.1_H5.1_A5.1_[T5A]_[T6C]_[A7T]_F5.1_[T8C]_[T9C]_[A10G]_T5.1 (ssRNA) RNA: UUUGACAACUGAUCGUUCUUUCUUGUAACUCCGUUCUUUCUCGAUCAGUUGUCUUU	> 2300
Ic_S4_P5E.1_K5.1_C5.1_H5.1_A5.1_[T5C]_[T6G]_[A7T]_F5.1_[T8G]_[T9C]_[A10C]_T5.1 (ssRNA) RNA: UUUGACAACUGAUCGUUCUUUCUUGUACGUGCCUUCUUUCUCGAUCAGUUGUCUUU	125
Ic_S4_P5E.1_K5.1_C5.1_H5.1_A5.1_[T5A]_[T6C]_F5.1_[T9G]_[A10C]_T5.1 (ssRNA) RNA: UUUGACAACUGAUCGUUCUUUCUUGUAACAUGCUUCUUUCUCGAUCAGUUGUCUUU	25.7
Ic_S4_P5E.1_K5.1_C5.1_H5.1_A5.1_[T5A]_[A7T]_F5.1_[T8A]_[T9G]_[A10C]_T5.1 (ssRNA) RNA: UUUGACAACUGAUCGUUCUUUCUUGUAAUUAGCUUCUUUCUCGAUCAGUUGUCUUU	338
Ic_S4_P5E.1_K5.1_C5.1_H5.1_A5.1_[T5C]_[T6A]_[A7C]_F5.1_[T8A]_[T9A]_T5.1 (ssRNA) RNA: UUUGACAACUGAUCGUUCUUUCUUGUACACAAAUUCUUUCUCGAUCAGUUGUCUUU	15.5
Ic_S4_P5E.1_K5.1_C5.1_H5.1_A5.1_[T5A]_[T6A]_[A7C]_F5.1_[T9G]_[A10G]_T5.1 (ssRNA) RNA: UUUGACAACUGAUCGUUCUUUCUUGUAAACUGGUUCUUUCUCGAUCAGUUGUCUUU	280
Ic_S4_P5E.1_K5.1_C5.1_H5.1_A5.1_[T6A]_[A7C]_F5.1_[T8G]_[T9G]_[A10T]_T5.1 (ssRNA) RNA: UUUGACAACUGAUCGUUCUUUCUUGUAUACGGUUUCUUUCUCGAUCAGUUGUCUUU	510
Ic_S4_P5E.1_K5.1_C5.1_H5.1_A5.1_[T5C]_[T6G]_[A7T]_F5.1_[T8A]_[T9A]_[A10T]_T5.1 (ssRNA) RNA: UUUGACAACUGAUCGUUCUUUCUUGUACGUAAUUUCUUUCUCGAUCAGUUGUCUUU	67.6
Ic_S4_P5E.1_K5.1_C5.1_H5.1_A5.1_[A7C]_F5.1_[T8C]_[T9C]_T5.1 (ssRNA) RNA: UUUGACAACUGAUCGUUCUUUCUUGUAUUCCCAUUCUUUCUCGAUCAGUUGUCUUU	141
Ic_S4_P5E.1_K5.1_C5.1_H5.1_A5.1_[T6C]_[A7G]_F5.1_[T8C]_[T9C]_[A10G]_T5.1 (ssRNA) RNA: UUUGACAACUGAUCGUUCUUUCUUGUAUCGCCGUUCUUUCUCGAUCAGUUGUCUUU	1730
Ic_S4_P5E.1_K5.1_C5.1_H5.1_A5.1_[T5A]_[T6A]_[A7C]_F5.1_[T8G]_[T9C]_[A10C]_T5.1 (ssRNA) RNA: UUUGACAACUGAUCGUUCUUUCUUGUAAACGCCUUCUUUCUCGAUCAGUUGUCUUU	586
Ic_S4_P5E.1_K5.1_C5.1_H5.1_A5.1_[T5C]_F5.1_[T8C]_[T9G]_[A10C]_T5.1 (ssRNA) RNA: UUUGACAACUGAUCGUUCUUUCUUGUACUACGCUUCUUUCUCGAUCAGUUGUCUUU	499
Ic_S4_P5E.1_K5.1_C5.1_H5.1_A5.1_[T5C]_[T6G]_[A7T]_F5.1_[T8G]_[T9G]_[A10T]_T5.1 (ssRNA) RNA: UUUGACAACUGAUCGUUCUUUCUUGUACGUGGUUUCUUUCUCGAUCAGUUGUCUUU	195
Ic_S4_P5E.1_K5.1_C5.1_H5.1_A5.1_[T5C]_[T6G]_[A7T]_F5.1_[T8C]_[T9G]_[A10T]_T5.1 (ssRNA) RNA: UUUGACAACUGAUCGUUCUUUCUUGUACGUCGUUUCUUUCUCGAUCAGUUGUCUUU	167
Ic_S4_P5E.1_K5.1_C5.1_H5.1_A5.1_[T5C]_[T6C]_F5.1_[T9A]_[A10C]_T5.1 (ssRNA) RNA: UUUGACAACUGAUCGUUCUUUCUUGUACCAUACUUCUUUCUCGAUCAGUUGUCUUU	2.7
Ic_S4_P5E.1_K5.1_C5.1_H5.1_A5.1_[T5A]_[T6A]_[A7T]_F5.1_[T8C]_[T9C]_[A10G]_T5.1 (ssRNA) RNA: UUUGACAACUGAUCGUUCUUUCUUGUAAAUCCGUUCUUUCUCGAUCAGUUGUCUUU	254
Ic_S4_P5E.1_K5.1_C5.1_H5.1_A5.1_[T6A]_[A7C]_F5.1_[T8C]_[T9A]_[A10T]_T5.1 (ssRNA) RNA: UUUGACAACUGAUCGUUCUUUCUUGUAUACCAUUUCUUUCUCGAUCAGUUGUCUUU	15.4

Binder	Kd [nM]
Ic_S4_P5E.1_K5.1_C5.1_H5.1_A5.1_[T5A]_F5.1_[A10G]_T5.1 (ssRNA) RNA: UUUGACAACUGAUCGUUCUUUCUUGUAAUAUUGUUCUUUCUCGAUCAGUUGUCUUU	24.3
Ic_S4_P5E.1_K5.1_C5.1_H5.1_A5.1_[T5C]_[T6G]_[A7T]_F5.1_[T8C]_[T9A]_[A10T]_T5.1 (ssRNA) RNA: UUUGACAACUGAUCGUUCUUUCUUGUACGUCAUUUCUUUCUCGAUCAGUUGUCUUU	98.8
Ic_S4_P5E.1_K5.1_C5.1_H5.1_A5.1_[T5C]_[A7T]_F5.1_[T8C]_T5.1 (ssRNA) RNA: UUUGACAACUGAUCGUUCUUUCUUGUACUUCUAUUCUUUCUCGAUCAGUUGUCUUU	2.44
Ic_S4_P5E.1_K5.1_C5.1_H5.1_A5.1_[T6C]_[A7T]_F5.1_[T8A]_[T9G]_[A10C]_T5.1 (ssRNA) RNA: UUUGACAACUGAUCGUUCUUUCUUGUAUCUAGCUUCUUUCUCGAUCAGUUGUCUUU	47.4
Ic_S4_P5E.1_K5.1_C5.1_H5.1_A5.1_[T5G]_[A7C]_F5.1_[T8G]_[A10G]_T5.1 (ssRNA) RNA: UUUGACAACUGAUCGUUCUUUCUUGUAGUCGUGUUCUUUCUCGAUCAGUUGUCUUU	486
Ic_S4_P5E.1_K5.1_C5.1_H5.1_A5.1_[T5G]_[A7C]_F5.1_[T8A]_[T9C]_[A10T]_T5.1 (ssRNA) RNA: UUUGACAACUGAUCGUUCUUUCUUGUAGUCACUUUCUUUCUCGAUCAGUUGUCUUU	1040
Ic_S4_P5E.1_K5.1_C5.1_H5.1_A5.1_[A7G]_F5.1_[T9C]_[A10T]_T5.1 (ssRNA) RNA: UUUGACAACUGAUCGUUCUUUCUUGUAUUGUCUUUCUUUCUCGAUCAGUUGUCUUU	134
Ic_S4_P5E.1_K5.1_C5.1_H5.1_A5.1_[T5C]_[A7T]_F5.1_[T8C]_[T9A]_[A10T]_T5.1 (ssRNA) RNA: UUUGACAACUGAUCGUUCUUUCUUGUACUUCAUUUCUUUCUCGAUCAGUUGUCUUU	103
Ic_S4_P5E.1_K5.1_C5.1_H5.1_A5.1_[T5A]_[A7C]_F5.1_[T8C]_[T9G]_[A10G]_T5.1 (ssRNA) RNA: UUUGACAACUGAUCGUUCUUUCUUGUAAUCCGGUUCUUUCUCGAUCAGUUGUCUUU	> 2300
Ic_S4_P5E.1_K5.1_C5.1_H5.1_A5.1_[T5A]_[T6C]_[A7C]_F5.1_[T9A]_[A10G]_T5.1 (ssRNA) RNA: UUUGACAACUGAUCGUUCUUUCUUGUAACCUAGUUCUUUCUCGAUCAGUUGUCUUU	48.7
Ic_S4_P5E.1_K5.1_C5.1_H5.1_A5.1_[T5C]_F5.1_[T8A]_[T9A]_[A10T]_T5.1 (ssRNA) RNA: UUUGACAACUGAUCGUUCUUUCUUGUACUAAAUUUCUUUCUCGAUCAGUUGUCUUU	18.5
Ic_S4_P5E.1_K5.1_C5.1_H5.1_A5.1_[T6C]_[A7T]_F5.1_[T8A]_[A10C]_T5.1 (ssRNA) RNA: UUUGACAACUGAUCGUUCUUUCUUGUAUCUAUCUUCUUUCUCGAUCAGUUGUCUUU	13.6
Ic_S4_P5E.1_K5.1_C5.1_H5.1_A5.1_[T6A]_[A7T]_F5.1_[T8A]_[T9A]_T5.1 (ssRNA) RNA: UUUGACAACUGAUCGUUCUUUCUUGUAUAUAAAUUCUUUCUCGAUCAGUUGUCUUU	3.86
Ic_S4_P5E.1_K5.1_C5.1_H5.1_A5.1_[T5A]_[A7T]_F5.1_[T8G]_[T9C]_[A10C]_T5.1 (ssRNA) RNA: UUUGACAACUGAUCGUUCUUUCUUGUAAUUGCCUUCUUUCUCGAUCAGUUGUCUUU	400
Ic_S4_P5E.1_K5.1_C5.1_H5.1_A5.1_[T5C]_[T6C]_[A7C]_F5.1_[T9A]_[A10G]_T5.1 (ssRNA) RNA: UUUGACAACUGAUCGUUCUUUCUUGUACCCUAGUUCUUUCUCGAUCAGUUGUCUUU	6.26
Ic_S4_P5E.1_K5.1_C5.1_H5.1_A5.1_[A7T]_F5.1_[T8A]_[A10G]_T5.1 (ssRNA) RNA: UUUGACAACUGAUCGUUCUUUCUUGUAUUUAUGUUCUUUCUCGAUCAGUUGUCUUU	12.4
Ic_S4_P5E.1_K5.1_C5.1_H5.1_A5.1_[T5A]_[T6C]_[A7G]_F5.1_[T9A]_[A10G]_T5.1 (ssRNA) RNA: UUUGACAACUGAUCGUUCUUUCUUGUAACGUAGUUCUUUCUCGAUCAGUUGUCUUU	114
Ic_S4_P5E.1_K5.1_C5.1_H5.1_A5.1_[T5A]_[T6C]_[A7T]_F5.1_[T8A]_[T9G]_[A10T]_T5.1 (ssRNA) RNA: UUUGACAACUGAUCGUUCUUUCUUGUAACUAGUUUCUUUCUCGAUCAGUUGUCUUU	586
Ic_S4_P5E.1_K5.1_C5.1_H5.1_A5.1_[T5A]_[T6C]_[A7C]_F5.1_[T9A]_[A10T]_T5.1 (ssRNA) RNA: UUUGACAACUGAUCGUUCUUUCUUGUAACCUAUUUCUUUCUCGAUCAGUUGUCUUU	5.91
Ic_S4_P5E.1_K5.1_C5.1_H5.1_A5.1_[T5C]_F5.1_[T8C]_[T9A]_[A10C]_T5.1 (ssRNA) RNA: UUUGACAACUGAUCGUUCUUUCUUGUACUACACUUCUUUCUCGAUCAGUUGUCUUU	540
Ic_S4_P5E.1_K5.1_C5.1_H5.1_A5.1_[T5G]_[A7C]_F5.1_[T8G]_T5.1 (ssRNA) RNA: UUUGACAACUGAUCGUUCUUUCUUGUAGUCGUAUUCUUUCUCGAUCAGUUGUCUUU	26.3
Ic_S4_P5E.1_K5.1_C5.1_H5.1_A5.1_[T5C]_[T6A]_[A7T]_F5.1_[T8G]_[A10T]_T5.1 (ssRNA) RNA: UUUGACAACUGAUCGUUCUUUCUUGUACAUGUUUUCUUUCUCGAUCAGUUGUCUUU	6.77
Ic_S4_P5E.1_K5.1_C5.1_H5.1_A5.1_[A7T]_F5.1_[T8C]_[T9A]_T5.1 (ssRNA) RNA: UUUGACAACUGAUCGUUCUUUCUUGUAUUUCAAUUCUUUCUCGAUCAGUUGUCUUU	452
UCUCUUUGUAAAUUUUCUCUU (ssRNA) [Ic_S1_P4E.1_K4.1_C4.1_H4.1_A4.1_[T5A]_F4.1_[A9T]_T4.1]	18.3
